The PETadex activity labels (doi:10.1021/bi00096a018)

Substrate: Acetylcholine
Conditions: pH 7; 22 °C

Protein | Km [µM] | kcat [s⁻¹]
unnamed (protein) MRPPWYPLHTPSLAFPLLFLLLSLLGGGARAEGREDPQLLVRVRGGQLRGIRLKAPGGPVSAFLGIPFAEPPVGSRRFMPPEPKRPWSGVLDATTFQNVCYQNVDTLYPGFEGTEMWNPNRELSEDCLYLNVWTPYPRPASPTPVLIWIYGGGFYSGAASLDVYDGRFLAQVEGAVLVSMNYRVGTFGFLALPGSREAPGNVGLLDQRLALQWVQENIAAFGGDPMSVTLFGESAGAASVGMHILSLPSRSLFHRAVLQSGTPNGPWATVSAGEARRRATLLARLVGCPPGGAGGNDTELIACLRTRPAQDLVDHERHVLPQESIFRFSFVPVVDGDFLSDTPEALINTGDFQDLQVLVGVVKDEGSYFLVYGVPGFSKDNESLISRAQFLAGVRIGVPQASDLAAEAVVLHYTDWLHPEDPTHLRDAMSAVVGDHNVVCPVAQLAGRLAAQGARVYAYIFEHRASTLTWPLWMGVPHGYEIEFIFGLPLDPSLNYTTEERIFAQRLMKYWTNFARTGDPNDPRDSKSPQWPPYTTAAQQYVSLNLKPLEVRRGLRAQTCAFWNRFLPKLLSATDTLDEAERQWKAEFHRWSSYMVHWKNQFDHYSKQERCSDL | 670 | 3170
unnamed (protein) MRPPWYPLHTPSLAFPLLFLLLSLLGGGARAEGREDPQLLVRVRGGQLRGIRLKAPGGPVSAFLGIPFAEPPVGSRRFMPPEPKRPWSGVLDATTFQNVCYQNVDTLYPGFEGTEMWNPNRELSEDCLYLNVWTPYPRPASPTPVLIWIYGGGFQSGAASLDVYDGRFLAQVEGAVLVSMNYRVGTFGFLALPGSREAPGNVGLLDQRLALQWVQENIAAFGGDPMSVTLFGESAGAASVGMHILSLPSRSLFHRAVLQSGTPNGPWATVSAGEARRRATLLARLVGCPPGGAGGNDTELIACLRTRPAQDLVDHEWHVLPQESIFRFSFVPVVDGDFLSDTPEALINTGDFQDLQVLVGVVKDEGSYFLVYGVPGFSKDNESLISRAQFLAGVRIGVPQASDLAAEAVVLHYTDWLHPEDPTHLRDAMSAVVGDHNVVCPVAQLAGRLAAQGARVYAYIFEHRASTLTWPLWMGVPHGYEIEFIFGLPLDPSLNYTTEERIFAQRLMKYWTNFARTGDPNDPRDSKSPQWPPYTTAAQQYVSLNLKPLEVRRGLRAQTCAFWNRFLPKLLSATDTLDEAERQWKAEFHRWSSYMVHWKNQFDHYSKQERCSDL | 95 | 1570
unnamed (protein) MRPPWYPLHTPSLAFPLLFLLLSLLGGGARAEGREDPQLLVRVRGGQLRGIRLKAPGGPVSAFLGIPFAEPPVGSRRFMPPEPKRPWSGVLDATTFQNVCYQYVDTLYPGFEGTEMWNPNRELSEDCLYLNVWTPYPRPASPTPVLIWIYGGGFQSGAASLDVYDGRFLAQVEGAVLVSMNYRVGTFGFLALPGSREAPGNVGLLDQRLALQWVQENIAAFGGDPMSVTLFGESAGAASVGMHILSLPSRSLFHRAVLQSGTPNGPWATVSAGEARRRATLLARLVGCPPGGAGGNDTELIACLRTRPAQDLVDHEWHVLPQESIFRFSFVPVVDGDFLSDTPEALINTGDFQDLQVLVGVVKDEGSYFLVYGVPGFSKDNESLISRAQFLAGVRIGVPQASDLAAEAVVLHYTDWLHPEDPTHLRDAMSAVVGDHNVVCPVAQLAGRLAAQGARVYAYIFEHRASTLTWPLWMGVPHGYEIEFIFGLPLDPSLNYTTEERIFAQRLMKYWTNFARTGDPNDPRDSKSPQWPPYTTAAQQYVSLNLKPLEVRRGLRAQTCAFWNRFLPKLLSATDTLDEAERQWKAEFHRWSSYMVHWKNQFDHYSKQERCSDL | 120 | 1830
